Measurements from patent US20030198640A1 (Human Genome Sciences, published 2003).
Blank lines part the entries; values can stand above or below the binder they belong to.

B4: full length TNF-gamma-beta expressed on the cell surface (HEK293F stable transfectants; cells transfected with TNF-gamma-β) (ligand)
chain: MAEDLGLSFGETASVEMLPEHGSCRPKARSSSARWALTCCLVLLPFLAGLTTYLLVSQLRAQGEACVQFQALKGQEFAPSHQQVYAPLRADGDKPRAHLTVVRQTPTQHFKNQFPALHWEHELGLAFTKNRMNYTNKFLLIPESGDYFIYSQVTFRGMTSECSEIRQAGRPNKPDSITVVITKVTDSYPEPTQLLMGTKSVCEVGSNWFQPIYLGAMFSLQEGDKLMVNVSDISLVDYTKEDKTFFGAFLL
notes: also called TNF-gamma-beta expressing cells

Experiments:
[1] = target: T1, TNF-gamma-β polypeptide (amino acid residues 72-251 of SEQ ID NO:2), untagged recombinant protein (human, UniProt O95150 72-251); experiment: BIAcore, control receptor surface
T1 construct: also called TL1β
T1 sequence: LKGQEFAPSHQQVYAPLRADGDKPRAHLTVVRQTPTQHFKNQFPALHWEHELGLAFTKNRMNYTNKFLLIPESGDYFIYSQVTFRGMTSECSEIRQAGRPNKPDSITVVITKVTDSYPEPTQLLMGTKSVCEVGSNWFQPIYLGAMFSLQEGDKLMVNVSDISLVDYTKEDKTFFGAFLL
Experimental: (§1) TNFR-Fc were covalently immobilized to the BIAcore sensor chip (CM5 chip) via amine groups using N-ethyl-N′-(dimethylaminopropyl) carbodiimide/N-hydroxysuccinimide chemistry. […] The amount of bound protein was determined during washing of the flow cell with HBS buffer (10 mM HEPES, pH 7.4, 150 mM NaCl, 3.4 mM EDTA, 0.005% Surfactant P20). The flow cell surface was regenerated by displacing bound protein by washing with 20 microliters of 10 mM glycine-HCl, pH 2.3. For kinetic analysis, the on and off rates were determined using the kinetic evaluation program in BIAevaluation 3 software using a 1:1 binding model and the global analysis method.

[2] = target: T2, FLAG-tagged soluble form of TNF-gamma-beta (aa 72-251) (human, UniProt O95150 72-251); experiment: co-immunoprecipitation with protein A-Sepharose, anti-Flag blot
T2 construct: also called FLAG-TL1β; FLAG-TNF-gamma-beta; not shown: FLAG tag of the pFLAG-CMV-1 vector at the amino terminus
T2 sequence: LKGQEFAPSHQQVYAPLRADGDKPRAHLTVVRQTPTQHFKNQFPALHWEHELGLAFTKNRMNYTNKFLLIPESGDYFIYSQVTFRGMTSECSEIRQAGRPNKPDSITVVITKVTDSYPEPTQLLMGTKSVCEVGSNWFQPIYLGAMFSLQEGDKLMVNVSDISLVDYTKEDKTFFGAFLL
Text: The beads were then precipitated and washed extensively with PBST buffer (PBS, 0.5% Triton X-100) before boiled in SDS-sample buffer. Proteins were resolved on 4-20% Tris-Glycine gels (NOVEX), transferred to nitrocellulose membranes, and blotted with anti-Flag M2 monoclonal antibody (1 microgram/ml, Sigma) and horseradish peroxidase (HRP)-conjugated goat anti-mouse IgG antibody (0.5 microgram/ml).

[3] = target: B4; experiment: flow cytometry on HEK293F cells expressing full length TNF-gamma-beta
Experimental: (§2) These cells were used to screen the Fc-fusion form of the extracellular domain of TNFR family members, including TNFR1, Fas, HveA, DR3, DR4, DR5, DR6, DcR1, DcR2, TR6, OPG, RANK, AITR, TAC1, CD40, and OX40. […] TR6 has been previously described as a decoy receptor (Pitti et al., Nature 396:699-703 (1998); Yu et al., J. Biol. Chem. 274:13733-6 (1999)) capable of competing with Fas and HveA for binding of FasL and LIGHT, respectively.
(§3) One million cells, in 0.1 ml of FACS buffer (PBS, 0.1% BSA, 0.1% NaN₃), were incubated with 0.1-1 microgram of protein or antibody at RT for 15 min. The cells were washed with 3 ml of FACS buffer, reacted with biotinylated primary antibody, and stained with PE-conjugated secondary antibody at RT for 15 min. Cells were then washed again, resuspended in 0.5 microgram/ml of propidium iodide, and live cells were gated and analyzed on a FACScan using the CellQuest software (BD Biosciences).

[4] = target: T1, TNF-gamma-β polypeptide (amino acid …); experiment: BIAcore, DR3-Fc immobilised, average of three batches; DR3-Fc, average of three batches
Experimental: as §1

[5] = target: T1, TNF-gamma-β polypeptide (amino acid …); experiment: BIAcore, DR3-Fc immobilised, three batches of TNF-gamma-beta; DR3-Fc
Experimental: as §1

[6] = target: T3, TR6-Fc (full-length human TNFR-6 alpha, SEQ ID NO:6 aa 1-300, fused to the Fc domain of human IgG1) (human, UniProt O95407 30-300); experiment: FACS on transfected cells
T3 construct: also called TNFR-6 alpha Fc fusion protein; DcR3-Fc; not shown: Fc domain of human IgG1
T3 sequence: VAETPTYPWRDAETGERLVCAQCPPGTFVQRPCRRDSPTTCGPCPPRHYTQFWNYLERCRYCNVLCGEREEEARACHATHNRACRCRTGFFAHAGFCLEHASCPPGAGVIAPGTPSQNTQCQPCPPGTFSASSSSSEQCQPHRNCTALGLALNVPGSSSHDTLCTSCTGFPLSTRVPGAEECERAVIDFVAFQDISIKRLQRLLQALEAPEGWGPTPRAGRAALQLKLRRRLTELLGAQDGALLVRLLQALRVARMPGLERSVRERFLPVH

[7] = target: T4, DR6 (Fc-fusion form of the extracellular domain) (UniProt O75509 42-349, limits assumed); experiment: flow cytometry on HEK293F cells expressing full length TNF-gamma-beta
T4 construct: extracellular domain; not shown: Fc part
T4 sequence (looked up): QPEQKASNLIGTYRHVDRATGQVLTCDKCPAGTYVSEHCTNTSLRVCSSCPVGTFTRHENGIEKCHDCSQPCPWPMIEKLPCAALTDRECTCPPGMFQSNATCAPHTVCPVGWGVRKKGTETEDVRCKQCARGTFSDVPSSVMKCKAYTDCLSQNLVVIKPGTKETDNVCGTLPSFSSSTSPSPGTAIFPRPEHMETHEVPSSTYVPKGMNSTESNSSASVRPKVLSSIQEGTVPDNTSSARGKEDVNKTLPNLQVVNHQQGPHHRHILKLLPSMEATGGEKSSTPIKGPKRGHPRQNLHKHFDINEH
Experimental: as §2, §3

B1: BCMA-Fc (Fc fusion, human, UniProt Q02223 1-54, looked up)
chain: MLQMAGQCSQNEYFDSLLHACIPCQLRCSSNTPPLTCQRYCNASVTNSVKGTNA
notes: not shown: Fc part
binding result [1]: no binding (tested: 370 nM (top of the range 3-370 nM))

Binder: B4
binding result [6]: binds
binding result [7]: no binding

Other lines, results leading:

binding result [2]: no binding
binding result [3]: no binding
B2: TACI-Fc (extracellular domain of human TACI, aa 1-159, fused to the Fc domain of human IgG1) (Fc fusion, UniProt O14836 1-159, looked up)
chain: MSGLGRSRRGGRSRVDQEERFPQGLWTGVAMRSCPEEQYWDPLLGTCMSCKTICNHQSQRTCAAFCRSLSCRKEQGKFYDHLLRDCISCASICGQHPKQCAYFCENKLRSPVNLPPELRRQRSGEVENNSDNSGRYQGLEHRGSEASPALPGLKLSADQ
notes: range 1-159; also called TAC1 (Fc-fusion); not shown: Fc domain of human IgG1

Kd [4]: 6.45 nM
koff [5]: 0.00413 s⁻¹
kon [5]: 639000 M⁻¹ s⁻¹
B3: DR3-Fc (extracellular domain of human DR3, aa 1-199, fused at its C-terminus to the Fc domain of human IgG1) (Fc fusion)
chain: QGGTRSPRCDCAGDFHKKIGLFCCRGCPAGHYLKAPCTEPCGNSTCLVCPQDTFLAWENHHNSECARCQACDEQASQVALENCSAVADTRCGCKPGWFVECQVSQCVSSSPFYCQPCLDCGALHRHTRLLCSRRDTDCGTCLPGFYEHGDGCVSCPTSTLGSCPERCAAVCGWRQ
notes: not shown: Fc domain of human IgG1
